Experimental data reported in US6849598B1, “Therapeutic compositions comprising bactericidal/permeability-increasing (BPI) protein products” (XOMA, priority 1995, dated 2005).

Experiments:
Type in all cases: cell-based
[1] = test system: A. baumannii; assay: Bactericidal activity with heat-treated PLURONIC P104 in serial 2-fold dilutions of serum; details: formulated BPI protein product diluted with heat-treated PLURONIC P104 solution
Protocol: Additional experiments were performed to test therapeutic compositions, prepared by diluting a variety of formulated BPI protein products with heat-treated PLURONIC P104 solution, and tested against A. baumannii in serial 2-fold dilutions of serum.

[2] = test system: A. baumannii (formerly A. anitratus); assay: Bactericidal activity in water or broth, CFU after 30 minutes and 3 hours (Example 3)
Protocol: (§1) The bactericidal activity of therapeutic compositions comprising BPI protein product and heat-treated PLURONIC P103 or heat-treated PLURONIC P104, was evaluated against the S. aureus and A. baumannii clinical isolates of Example 1 and the additional organisms S. pneunoniae (Microscan® ID no. 145) and E. faecium (Microscan® ID no. 15773). Therapeutic compositions comprising 500 μg/mL rBPI21 in a 0.075% (w/v) concentration of either heat-treated PLURONIC P103 or heat-treated PLURONIC P104 were formulated by diluting a 2 mg/mL solution of “non-formulated” rBPI21 or “formulated” rBPI21, with the appropriate amounts of 0.1% heat-treated PLURONIC P103 or heat-treated PLURONIC P104 solutions. Compositions comprising 500 μg/mL non-formulated rBPI21 in water alone (without any poloxamers) and poloxamer control solutions containing only 0.1% heat-treated P103 or heat-treated P104 (and no rBPI21) were also prepared A “formulated” rBPI23 therapeutic composition containing 1 mg/mL rBPI23, 0.1% PLURONIC F68 and 0.002% TWEEN 80 was also tested for comparison.
(§2) Sterile stock solutions of heat-treated PLURONIC P103 or heat-treated PLURONIC P104 were prepared using the following procedure: (1) making a 0.1% (w/v) solution of the poloxamer in deionized water, (2) heating the solution to a boil, (3) allowing it to cool to room temperature, (4) stirring until the PLURONIC P103 was completely solubilized, and (5) filtering the solution through a 0.22 μm Nalgene filter for sterilization.
(§3) The S. aureus, E. faecium and A. baumannii bacteria were grown on TSA plates (Remel, Catalog #01-920, Lenexa, Kans.), and the S. pneumoniae were grown on 5% sheep blood agar plates (Remel, Catalog# 01-200, Lenexa, Kans.) for 24 hours. A bacterial stock emulsion was prepared by emulsifying bacterial colonies in sterile deionized water to approximately 2.2 to 3.8×10^8 CFU/mL as measured by a Microscan® Turbidity Meter, and diluting further by 1:10 in water. Assays for rBPI21 therapeutic compositions were conducted in 96-well flat-bottom microtiter plates (Corning, catalog# 25860-96) by adding to each well: 185 μL of TSB (Remel, catalog #08-942, Lenexa, Kans.) or sterile water for injection (Kendall McGaw); 8 μL of the bacterial emulsion; 6.3 μL of the indicated 500 μg/mL rBPI21/poloxamer therapeutic composition (or poloxamer control solution or water alone). The final concentrations of bacteria in each well were about 4 to 7×10^5 CFU/mL. Assays for the rBPI23 therapeutic composition were conducted in the same way, except 178 μL of broth or water and 13 μL of the […] rBPI23 composition were added. The well contents were mixed and the plates were incubated at 37° C. The CFUs in each well were counted at 10^−2 and 10^−4 dilutions after 30 minutes and 3 hours of incubation. Results at 30 minutes and 3 hours, respectively, are shown below in Tables 8 and 9.

[3] = test system: E. faecium (Microscan® ID no. 15773); assay: as above
Protocol: as §1, §2, §3

[4] = test system: S. aureus; assay: as above
Protocol: as §1, §2, §3

[5] = test system: S. pneumoniae (Microscan® ID no. 145); assay: as above
Protocol: as §1, §2, §3

[6] = broth, Incubation for 3 hours, Control TNTC
[7] = water, Incubation for 3 hours, Control TNTC
[8] = broth, Incubation for 30 minutes, Control TNTC / TNTC
[9] = water, Incubation for 30 minutes, Control TNTC / TNTC

B1: rBPI21: expression product of DNA encoding amino acid 1 to approximately 193 or 199 of BPI holoprotein, cysteine 132 substituted with alanine (protein, UniProt P17213 32-224, looked up, variant C132A)
chain: VNPGVVVRISQKGLDYASQQGTAALQKELKRIKIPDYSDSFKIKHLGKGHYSFYSMDIREFQLPSSQISMVPNVGLKFSISNANIKISGKWKAQKRFLKMSGNFDLSIEGMSISADLKLGSNPTSGKPTITASSCSSHINSVHVHISKSKVGWLIQLFHKKIESALRNKMNSQVCEKVTNSVSSELQPYFQTL
With B1 as the molecule, how does the “serum concentrations at which bactericidal activity was observed” value [1] read?
The value was no more than 6.25%.

And the CFUs ([2]; A. anitratus, broth, Incubation for 30 minutes, Control 44 / 41)?
The CFUs was 24 10000 CFUs.

What about the CFUs ([2]; A. anitratus, broth, Incubation for 30 minutes, Control TNTC / TNTC) of the same molecule?
The CFUs was “TNTC”.

And the CFUs ([2]; A. anitratus, water, Incubation for 30 minutes, Control 16 / 17)?
The CFUs was 0 10000 CFUs.

What about the CFUs ([2]; A. anitratus, water, Incubation for 30 minutes, Control TNTC / TNTC) of the same molecule?
The CFUs was 73 100 CFUs.

What about the CFUs [2, 6] of the same molecule?
Its CFUs is 58 100 CFUs.

And the CFUs [2, 7]?
The CFUs was 0 100 CFUs.

And the CFUs ([3]; broth, Incubation for 30 minutes, Control 68 / 38)?
The CFUs was 89 10000 CFUs.

What about the CFUs [3, 8] of the same molecule?
Its CFUs is “TNTC”.

What about the CFUs [3, 6] of the same molecule?
Its CFUs is “TNTC”.

And the CFUs ([3]; water, Incubation for 30 minutes, Control 37 / 35)?
The CFUs was 1 10000 CFUs.

And the CFUs [3, 9]?
Its CFUs is 50 100 CFUs.

What about the CFUs [3, 7] of the same molecule?
The CFUs was 1 100 CFUs.

And the CFUs ([4]; broth, Incubation for 30 minutes, Control 65 / 59)?
Its CFUs is 57 10000 CFUs.

And the CFUs [4, 8]?
Its CFUs is “TNTC”.

And the CFUs [4, 6]?
The CFUs was “TNTC”.

And the CFUs ([4]; water, Incubation for 30 minutes, Control 54 / 63)?
The CFUs was 2 10000 CFUs.

What about the CFUs [4, 9] of the same molecule?
Its CFUs is 315 100 CFUs.

And the CFUs [4, 7]?
Its CFUs is 12 100 CFUs.

And the CFUs ([5]; broth, Incubation for 30 minutes, Control 4 / 1)?
Its CFUs is 4 10000 CFUs.

What about the CFUs ([5]; broth, Incubation for 30 minutes, Control 389 / 350) of the same molecule?
The CFUs was 290 100 CFUs.

And the CFUs ([5]; broth, Incubation for 3 hours, Control 337)?
The CFUs was 447 100 CFUs.

And the CFUs ([5]; water, Incubation for 30 minutes, Control 1 / 0)?
Its CFUs is 0 10000 CFUs.

And the CFUs ([5]; water, Incubation for 30 minutes, Control 75 / 47)?
Its CFUs is 61 100 CFUs.

And the CFUs ([5]; water, Incubation for 3 hours, Control 0)?
The CFUs was 0 100 CFUs.
